Source: paper PMC3763810

What follows are substances tested against growth hormone secretagogue receptor (GHS-R1a) (UniProt Q92847).
Sequence of UniProt Q92847 (Q92847 whole entry): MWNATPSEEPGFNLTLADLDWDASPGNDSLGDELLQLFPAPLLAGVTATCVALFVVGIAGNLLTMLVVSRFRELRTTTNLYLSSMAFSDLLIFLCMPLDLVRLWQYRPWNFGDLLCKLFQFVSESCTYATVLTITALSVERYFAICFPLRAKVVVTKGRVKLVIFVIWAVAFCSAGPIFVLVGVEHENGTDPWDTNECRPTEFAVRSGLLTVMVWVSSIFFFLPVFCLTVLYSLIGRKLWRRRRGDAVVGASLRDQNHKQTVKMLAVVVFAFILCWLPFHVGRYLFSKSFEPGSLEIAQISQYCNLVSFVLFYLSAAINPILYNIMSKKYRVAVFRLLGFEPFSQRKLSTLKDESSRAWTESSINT
In the case of Des-acyl ghrelin (peptide), the EC50 in the GHS-R1a assay (stably transfected HEK-293T-GHS-R1a cells) is reported as greater than 10000 nM. In the case of “Amide ghrelin (Ser3 Dap-Octanoyl-Amide) (peptide)”, the EC50 in the GHS-R1a assay (stably transfected HEK-293T-GHS-R1a cells) is reported as 19 nM. In the case of GO-Tat (peptide), the EC50 in the GHS-R1a assay (stably transfected HEK-293T-GHS-R1a cells) is reported as 23 nM. In the case of Ghrelin28-Oct-CoA (peptide), the EC50 in the GHS-R1a assay (stably transfected HEK-293T-GHS-R1a cells) is reported as 270 nM. Acyl ghrelin (peptide) showed an EC50 in the GHS-R1a assay (stably transfected HEK-293T-GHS-R1a cells) of 18 nM. Work on GO-CoA-Tat (peptide) yielded an EC50 in the GHS-R1a assay (stably transfected HEK-293T-GHS-R1a cells) greater than 10000 nM.

These substances were tested against ghrelin O-acyltransferase (GOAT) with a C-terminal 3xFlag tag (mouse) (UniProt P0C7A3).
Sequence of UniProt P0C7A3 (P0C7A3 whole entry): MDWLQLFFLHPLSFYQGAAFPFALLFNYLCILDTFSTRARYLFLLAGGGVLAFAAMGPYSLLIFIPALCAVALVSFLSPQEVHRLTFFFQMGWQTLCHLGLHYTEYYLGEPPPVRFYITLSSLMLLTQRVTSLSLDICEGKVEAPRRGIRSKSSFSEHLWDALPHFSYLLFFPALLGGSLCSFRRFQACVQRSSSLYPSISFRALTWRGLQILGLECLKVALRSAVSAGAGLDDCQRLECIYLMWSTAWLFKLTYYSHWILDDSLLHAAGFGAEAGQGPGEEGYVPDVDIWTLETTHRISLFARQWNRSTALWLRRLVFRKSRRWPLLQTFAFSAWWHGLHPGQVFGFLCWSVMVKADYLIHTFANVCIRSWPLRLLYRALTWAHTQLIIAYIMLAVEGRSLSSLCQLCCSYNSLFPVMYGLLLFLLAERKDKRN
Work on GO-CoA-Tat (peptide) yielded an inhibition of ghrelin acylation in cells, compounds used at 6 μM of 75%.
